Patent US20260168005A1, “DRUG SCREENING METHOD BASED ON DRUG DISCOVERY CONCEPT OF CANCER CELL PROLIFERATION INHIBITION INDUCED BY DISRUPTION OF CHROMOSOME REGULATION DUE TO PLK1 KINASE ACTIVATION” (JAPANESE FOUNDATION FOR CANCER RESEARCH, priority 2022, published 2026)
No end group written: not given here.

B1: PxVXL peptide (negative control peptide that does not bind to PLK1) (peptide)
peptide: NHTQCQLVPVVEIGISERQN
notes: Printed in the text as NHTQCQLVPVVEIGISERON; The 'O' may be a printing error

What was measured:
HeLa cells = assay: Cell death on expression of GFP-tagged PON peptide, live cell imaging; assay type: cell-based; details: plasmid transfection, GFP tag at N-terminus, live cell imaging (FIG. 6B)
From the text: (§1) Plasmids that express WT ([…]: SEQ ID NO: 1) and a TA mutant (Plk1 unbound, […]: SEQ ID NO: 2) of the PON peptide with a GFP tag added to the N-terminus were introduced into HeLa cells by a plasmid transfection method with FuGENE HD transfection Reagent (Promega Corporation) and into RPE1 cells by a nucleofection method with 4D nucleofector (Lonza Group Ltd.). Since the PON peptide binds to the PBD upon phosphorylation by Cdk1, a TA mutant of the PON peptide in which the phosphorylation site was substituted with Ala was used as a negative control.
(§2) Observation was performed using live cell imaging, and the number of cells that underwent cell death in cells with GFP expression observed was counted. […] In other words, suppression of the association of the PBD and KD of endogenous Plk1 can cause significant cell growth suppression to be induced in cancer cells (FIG. 6B). From the fact that induction of cell death due to Plk1 activation is not observed in normal cells, compounds that activate Plk1 are expected to exert an effect in a cancer cell-specific manner.

recombinant GST-His-Plk1 = recombinant GST-His-Plk1 (Homo sapiens, UniProt P53350); assay: Intramolecular TR-FRET assay of kinase domain / Polo-Box domain association; assay type: binding; details: Plk1 0 to 100 nM; pPON 0 to 1000 µM, PxVXL 25 to 100 µM; room temperature 1 hour, then GST-Tb and His-d2 3 hours (FIG. 7B)
Chain of recombinant GST-His-Plk1 (P53350 whole entry, the tested form may be a part): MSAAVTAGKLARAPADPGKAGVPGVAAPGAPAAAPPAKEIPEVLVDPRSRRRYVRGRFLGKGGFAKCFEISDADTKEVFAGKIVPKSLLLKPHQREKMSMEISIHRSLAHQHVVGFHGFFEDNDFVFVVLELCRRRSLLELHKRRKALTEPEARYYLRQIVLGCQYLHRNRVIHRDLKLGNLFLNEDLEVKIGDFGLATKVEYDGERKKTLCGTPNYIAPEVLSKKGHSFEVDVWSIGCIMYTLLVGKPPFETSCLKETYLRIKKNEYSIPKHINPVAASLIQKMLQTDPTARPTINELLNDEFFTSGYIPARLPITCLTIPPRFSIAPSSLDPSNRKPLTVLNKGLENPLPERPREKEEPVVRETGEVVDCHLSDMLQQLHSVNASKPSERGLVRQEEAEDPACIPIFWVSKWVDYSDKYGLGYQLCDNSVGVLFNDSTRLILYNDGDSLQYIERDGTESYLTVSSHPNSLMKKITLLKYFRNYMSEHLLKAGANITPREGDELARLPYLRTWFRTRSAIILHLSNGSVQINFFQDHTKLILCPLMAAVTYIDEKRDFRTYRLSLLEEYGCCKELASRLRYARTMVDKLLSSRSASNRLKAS
From the text: In other words, it is an assay system that reflects the folding state within Plk1 molecules, and a screening system for drug discovery sees according to the mechanism of action of “inhibiting the suppressive association within the molecules to lead to kinase activation”. A fluorescence resonance energy transfer (FRET) assay system that detects the interaction of PBD that suppressively associates with the Plk1 kinase domain was constructed. The design was made as follows: a full-length recombinant protein was purified, and a donor (GST-Tb) were placed in the kinase domain and an acceptor (His-d2) in the PBD using antibodies that act as luminescent agents based on the conformational information so that the FRET reaction would efficiently occur.
A recombinant Plk1 in which a GST tag was added into a pFastBacl vector at the N-terminus, and a 6His-tag was inserted in the vicinity of the N-terminus of PB1 (Polo-Box 1) was constructed (left in FIG. 7A, GST-His-Plk1). […]
Intramolecular FRET analysis was performed using the recombinant GST-His-Plk1. […] Then, GST-Tb and His-d2 (PerkinElmer, Inc., MAb Anti-GST-Tb cryptate, MAb Anti-6HIS-d2) were added thereto to react at room temperature for 3 hours, and the emission signals were measured using the time-resolved fluorescence-fluorescence resonance energy transfer method (TR-FRET). […]

endogenous Plk1 = endogenous Plk1 (UniProt P53350); assay: cell-based or functional assay
Chain of endogenous Plk1 (P53350 2-603 limits assumed): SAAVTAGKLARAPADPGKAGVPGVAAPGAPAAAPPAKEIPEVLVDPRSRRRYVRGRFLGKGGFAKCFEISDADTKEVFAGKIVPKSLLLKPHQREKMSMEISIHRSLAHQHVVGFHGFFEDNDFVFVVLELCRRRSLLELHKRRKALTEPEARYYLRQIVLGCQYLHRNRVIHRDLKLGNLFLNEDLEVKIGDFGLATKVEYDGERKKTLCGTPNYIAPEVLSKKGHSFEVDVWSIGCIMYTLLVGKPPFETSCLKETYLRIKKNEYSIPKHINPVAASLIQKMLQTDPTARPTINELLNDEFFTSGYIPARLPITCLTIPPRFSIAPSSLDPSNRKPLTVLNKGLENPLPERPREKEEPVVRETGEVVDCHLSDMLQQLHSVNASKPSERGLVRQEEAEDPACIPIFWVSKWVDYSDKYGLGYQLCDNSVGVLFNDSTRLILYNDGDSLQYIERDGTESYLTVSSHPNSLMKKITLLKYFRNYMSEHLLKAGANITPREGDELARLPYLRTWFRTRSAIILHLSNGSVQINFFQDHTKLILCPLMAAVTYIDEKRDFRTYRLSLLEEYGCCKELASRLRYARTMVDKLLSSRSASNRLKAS

[1] = target: recombinant GST-His-Plk1 (WT) (Homo sapiens, UniProt P53350); assay: ADP-Glo kinase assay with dephosphorylated casein substrate; assay type: biochemical; details: pPON 0 to 1000 M; 0.5 μg dephosphorylated casein; 5 µM ATP; room temperature 1 hour (FIG. 10A)
Chain of recombinant GST-His-Plk1 (WT) (Homo sapiens, UniProt P53350) (P53350 whole entry): as the sequence (P53350 whole entry, the tested form may be a part) above
Method: Further, the kinase activity of GST-His-Plk1 was evaluated by a kinase assay. First, it was confirmed that the kinase activity of the recombinant GST-His-Plk1, which contained a His-tag for FRET in the molecule, was equivalent to that of the one without the tag. Next, GST-His-Plk1 was used and mixed with 0.5 μg of dephosphorylated casein as a phosphorylation substrate in the presence of pPON ([…]), a kinase reaction was performed at room temperature for 1 hour in the presence of 5 µM of ATP, and a kinase reaction was performed between the recombinant GST-His-Plk1 (WT) (0 to 3.36 μM) and the dephosphorylated casein. Using an ADP-Glo (trademark) kinase assay kit (Promega Corporation), the kinase activity was measured by an ADP-Glo method, which quantifies in the […]. […] Also, the results of the kinase assays using the S137D/T210D mutant and S137D mutant also indicate that high kinase activity can be obtained when the intramolecular association is inhibited (FIG. 10B). Accordingly, the kinase assay can be used as a screening method that detects the association between the kinase domain and PBD of Plk1, and suppression of the association can be detected. Also, in the case of using the kinase assay for screening, a construct in which a kinase domain and PBD are separated can also be used.

RPE1 cells = assay: Cell death on expression of GFP-tagged PON peptide, live cell imaging; assay type: cell-based; details: RPE1 normal diploid cells, nucleofection, GFP tag at N-terminus, live cell imaging (FIG. 6B)
From the text: as §1, §2

[2] = target: T1, recombinant GST-His-Plk1 (WT) (UniProt P53350 2-603, limits assumed); assay: intramolecular TR-FRET on GST-His-Plk1 (indirect read-out)
T1 construct: mature; Made in the Baculovirus/Sf9 system and purified on Glutathione Sepharose; also called Plk1 recombinant protein; wild-type GST-His-Plk1; not shown: N-terminal GST tag
T1 sequence (P53350 2-603 limits assumed): as the sequence (P53350 2-603 limits assumed) above

Molecule	death of cells (percentage of GFP-expressing cells that underwent cell death) (HeLa cells)	FRET signal (His-d2 relative to GST-Tb) (recombinant GST-His-Plk1)	other results
ESCFTNAAFSSAPKK [TA mutant, reference compound]	about 30%		
NHTQCQLVPVVEIGISERON (NHTQCQLVPVVEIGISERQN) [PxVXL, reference compound]		this effect was not observed	
PON peptide WT with a GFP tag added to the N-terminus			percentage of cell death in GFP-expressing HeLa cells (live cell imaging) (endogenous Plk1): > 70%
pPON: pPON peptide (SEQ ID NO: 1) reacted with recombinant Plk1 in FRET and kinase assays (ESCFTNAAFSSTPKK; also: phosphorylated, position not given here)		FRET signals were reproducibly observed to gradually decrease	kinase activity [1]: kinase activity increased depending on the amount of pPON added
ESCFTNAAFSSTPKK [PON peptide]	≥ 70%		increase in cell death (RPE1 cells): no increase in cell death was observed
B1			binding result [2]: no binding (tested: 25 to 100 UM)
